Assay results published in patent publication EP4644423A1 (Biyopharma Co., Ltd, dated 2025).

T1: pituitary adenylate cyclase-activating polypeptide (PACAP) (UniProt P18509 132-169, not fully specified; biotin label in the ELISA of Example 3 (Biotin-PACAP; position not stated); unlabelled in the cAMP assay)
T1 construct: also called PACAP38; Biotin-PACAP
T1 peptide (looked up): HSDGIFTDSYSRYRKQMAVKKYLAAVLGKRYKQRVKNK


Key:
RC-Fc [1] = molecular target: T2, RC-Fc (human); assay: ELISA, RC-Fc coated, VHH-His titrated, anti-His-HRP; Exp2
T2 construct: Knob-in-hole heterodimer of the R chain and the C chain, human IgG1 Fc; expressed in 293 cells, purified on Protein A; also called RC-Fc fusion protein; reconstructed CGRP receptor extracellular region
T2 sequence (chain, as listed by the source limits assumed, chain 1 of 2): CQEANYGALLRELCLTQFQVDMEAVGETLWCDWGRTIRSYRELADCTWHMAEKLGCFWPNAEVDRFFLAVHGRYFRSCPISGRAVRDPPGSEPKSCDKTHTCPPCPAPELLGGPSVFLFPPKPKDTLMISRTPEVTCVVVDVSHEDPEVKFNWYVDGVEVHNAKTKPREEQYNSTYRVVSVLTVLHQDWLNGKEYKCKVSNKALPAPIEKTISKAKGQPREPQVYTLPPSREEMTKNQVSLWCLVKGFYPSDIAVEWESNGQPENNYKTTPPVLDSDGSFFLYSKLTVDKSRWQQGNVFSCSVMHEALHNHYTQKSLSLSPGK
T2 sequence (chain, as listed by the source limits assumed, chain 2 of 2): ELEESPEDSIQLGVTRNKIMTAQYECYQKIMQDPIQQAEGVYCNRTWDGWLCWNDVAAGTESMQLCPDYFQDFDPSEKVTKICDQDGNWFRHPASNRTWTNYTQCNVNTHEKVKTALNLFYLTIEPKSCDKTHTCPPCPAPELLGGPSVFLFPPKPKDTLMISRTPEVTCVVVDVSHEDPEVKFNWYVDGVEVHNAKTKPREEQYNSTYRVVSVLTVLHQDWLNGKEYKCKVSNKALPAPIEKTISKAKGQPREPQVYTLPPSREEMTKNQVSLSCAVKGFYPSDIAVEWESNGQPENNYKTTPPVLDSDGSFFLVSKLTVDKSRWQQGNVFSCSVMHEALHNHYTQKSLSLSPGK

RC-Fc [2] = molecular target: T2, RC-Fc; assay: ELISA, RC-Fc coated, VHH-His titrated, anti-His-HRP; Exp1
RC-Fc [3] = molecular target: T2, RC-Fc; assay: ELISA, RC-Fc coated, VHH-His titrated, anti-His-HRP; Exp3
RC-Fc [4] = molecular target: T2, RC-Fc; assay: ELISA, RC-Fc coated, VHH-His titrated, anti-His-HRP; average of Exp1-3
[5] = molecular target: CGRP receptor on SK-N-MC cells (UniProt O60894 27-148; Q16602 23-461, limits assumed); assay: cell-based or functional assay
CGRP receptor on SK-N-MC cells, sequence (O60894 27-148 limits assumed, chain 1 of 2): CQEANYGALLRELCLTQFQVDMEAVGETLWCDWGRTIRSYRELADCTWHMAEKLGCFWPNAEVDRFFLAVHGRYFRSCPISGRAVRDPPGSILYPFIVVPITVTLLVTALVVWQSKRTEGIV
CGRP receptor on SK-N-MC cells, sequence (Q16602 23-461 limits assumed, chain 2 of 2): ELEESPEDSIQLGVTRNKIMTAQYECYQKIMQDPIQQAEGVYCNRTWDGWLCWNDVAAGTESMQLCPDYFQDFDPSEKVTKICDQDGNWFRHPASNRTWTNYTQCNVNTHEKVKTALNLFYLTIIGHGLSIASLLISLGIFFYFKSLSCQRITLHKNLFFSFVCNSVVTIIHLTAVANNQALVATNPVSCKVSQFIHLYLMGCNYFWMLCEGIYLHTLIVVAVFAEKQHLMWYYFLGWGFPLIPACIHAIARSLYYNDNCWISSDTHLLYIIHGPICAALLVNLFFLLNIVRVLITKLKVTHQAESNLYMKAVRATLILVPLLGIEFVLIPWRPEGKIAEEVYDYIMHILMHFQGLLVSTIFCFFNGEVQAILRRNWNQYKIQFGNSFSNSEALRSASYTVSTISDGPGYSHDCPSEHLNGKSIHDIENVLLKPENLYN

[6] = molecular target: T1, pituitary adenylate cyclase-activating …; assay: ELISA, Biotin-PACAP on streptavidin plate, Fc fusion titrated, anti-human IgG-HRP

Binder | EC50 (RC-Fc [1]) | EC50 (RC-Fc [2]) | EC50 (RC-Fc [3]) | EC50 (RC-Fc [4]) | IC50 (nM), inhibition of CGRP-induced (5 nM) cAMP production in SK-N-MC cells [5] | binding result (RC-Fc [2]) | fold binding ability against PAC1 ECD-Fc [6]
A10-269-165 (VHH, Llama VHH with C-terminal 6xHis, expressed in 293 cells; also called N220505103) VHH: QVQLVESGGGLVQAGGSLRLSCAASRTWFSIGAMGWYRQAPGKQRELVATITSGSSTTYADAVKGRFTVSRDNAENTVYLQMNSLKPEDTAVYYCYTKSRRKPWDLENDYWGQGTQVTVSS | 0.057 nM | 0.097 nM | 0.48 nM | 0.211 nM |  |  | 
A10-268-103 (VHH, Llama VHH with C-terminal 6xHis, expressed in 293 cells; also called B828605) VHH: QVQLVESGGGLVQAGGSLRLSCVASGRTFSSYAMGWFRQAPGKEREFVSGITESGATTRYADSMRGRFIISRDNAQNTVYLEMNSLKPEDSAVYYCAASRFGITVPTAKGAYNYWGQGTQVTVSS | 0.114 nM | 0.372 nM | 0.265 nM | 0.25 nM | 279 nM |  | 
A10-268-76 (VHH, Llama VHH with C-terminal 6xHis, expressed in 293 cells; also called B828604) VHH: QVQLVESGGGLVPAGGSLNLSCAASGRTFSTYAMGWFRQAPGKEREFVATINWDNGRTYYADSVKGRFTISRDNAKNMVYLQMNSLKPEDTAVYYCAADKTAIFRTSVVPDDYDYWGQGTQVTVSS | 0.144 nM | 0.024 nM | 0.028 nM | 0.065 nM | > 10000 nM |  | 
A10-269-172 (VHH, Llama VHH with C-terminal 6xHis, expressed in 293 cells; also called N220505104) VHH: EVQVVESGGGLVQAGGSLRLSCVSSESSFSINTMRWYRQAPGKERELVASINSASSTYYGDAVKGRFTISRVNAKNTVYLQMNSLKPEDTAVYFCNTHSVLASRDYWGQGTQVTVSS | 0.051 nM | 0.056 nM | 0.042 nM | 0.05 nM |  |  | 
A10-269-56 (VHH, Llama VHH with C-terminal 6xHis, expressed in 293 cells; also called N220505101) VHH: EVQLVESGGGLVQAGGSLRLSCAASGSTFSGRYMGWFRQGQGKEREFVAASMWSGTAISYADSVKGRFTISRDNAKATMYLQMSSLKDEDTAVYYCAAGGLWNLKLSDAGYYEYWGQGTQVTVSS |  |  |  |  |  | no binding | 
A10-268-42 (VHH, Llama VHH with C-terminal 6xHis, expressed in 293 cells; also called B828603; 42wt) VHH: QVQLVESGGGLVQAGDSLRLSCAASGRTFSGYVMGWFRQAPGKEREFVAALRWSSSNTNYAASVKGRFTISRDYAKDTVYLQMNSLKPDDTAVYYCAAKRDRPYGSTWTPVAADYDTWGQGTQVTVSS | 0.15 nM | 0.025 nM | 0.021 nM | 0.065 nM | 39.7 nM |  | 
A10-268-273 (VHH) VHH: EVQLVESGGGLVQPGDSLTLSCAASGRAKNRYVMGWFRQAPGKEREFVAALRWSSSNTNYAASVKGRFTISRDYAKDTVYLQMNSLKPDDTAVYYCAAKRDRPYGSTWTPVAADYDTWGQGTQVTVSA |  |  |  |  | 23.6 nM |  | 
PAC1s ECD-Fc (Fc fusion, C-terminus of PAC1s ECD fused to the N-terminus of Fc; also called PACs1 ECD-Fc; PACls ECD-Fc; not shown: Fc fused to the C-terminus of the ECD) MHSDCIFKKEQAMCLEKIQRANELMGFNDSSPGCPGMWDNITCWKPAHVGEMVLVSCPELFRIFNPDQDMGVVSRNCTEDGWSEPFPHYFDACGFDEYESETGDQDYYYLSVKA |  |  |  |  |  |  | 40 times that of PAC1 ECD-Fc
A10-269-238 (VHH, Llama VHH with C-terminal 6xHis, expressed in 293 cells; also called N220505106) VHH: QVQLVESGGGLVQPGGSLRLSCAASGFTFGNYDMSWVRQAPGKGPEWVSGIAPAGTITRYADSVKGRFTISRDNAKNTLYLQMNSLKPEDTAVYRCAKGASWGQGTQVTVSS | 0.073 nM | 0.091 nM | 0.081 nM | 0.082 nM |  |  | 
A10-269-385 (VHH, Llama VHH with C-terminal 6xHis, expressed in 293 cells; also called N220505107) VHH: EVQLVESGGGLVQAGGSLRVSCQASEISFSFHAMGWYRQAPGKQRELVARITSIGRTTYADFVKGRFTISRGNAKNTVYLQMNSLKPEDTAVYYCNAEPGRVNYEYWGQGTQVTVSS | 0.073 nM | 0.052 nM | 0.061 nM | 0.062 nM |  |  | 
A10-268-18 (VHH) VHH: QVQLVESGGGQVQAGGSLRLSCAASGRISSSYDMGWLRQAPGKEREFVARITWSGGSTYYADSVKGRFTISRDSTKKTVYLQMNSLKPEDTAVYYCAANRAFTGQYDYWGQGTQVTVSS |  |  |  |  | 492 nM |  | 
A10-268-5 (VHH, Llama VHH with C-terminal 6xHis, expressed in 293 cells; also called B828601) VHH: QVQLVESGGGLVQAGGSLRLSCAVSGRTVTTITMGWFRQAPGKEREFVASISWDGLSTGYQDSVKGRFTISRDNAKNTVYLQMNSLKPEDTAVYYCAAGDSLWSWSKVPANYAYWGQGTQVTVSS | 0.184 nM | 0.143 nM | 0.08 nM | 0.136 nM | > 10000 nM |  | 
